Measurements taken from patent publication EP3107577B1 (IBC Pharmaceuticals, Inc., dated 2024).
Where two headings read alike, the source gives them in different places. Blank lines part the entries; values can stand above or below the binder they belong to.

How the values were obtained:
mouse Trop-2 = target: T1, mouse Trop-2 (mouse, UniProt Q8BGV3 25-270, limits assumed); test: not described (data not shown)
T1 sequence (looked up): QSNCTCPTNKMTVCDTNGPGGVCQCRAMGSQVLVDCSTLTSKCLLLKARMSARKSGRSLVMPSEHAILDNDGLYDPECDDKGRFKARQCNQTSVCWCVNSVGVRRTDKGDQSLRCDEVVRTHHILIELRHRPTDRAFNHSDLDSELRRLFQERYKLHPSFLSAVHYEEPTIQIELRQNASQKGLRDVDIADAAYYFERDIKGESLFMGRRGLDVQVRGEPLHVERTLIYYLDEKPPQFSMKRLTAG

mouse CD3 = target: T2, mouse CD3 (mouse, UniProt P22646 22-108); test: not described (data not shown)
T2 sequence (looked up): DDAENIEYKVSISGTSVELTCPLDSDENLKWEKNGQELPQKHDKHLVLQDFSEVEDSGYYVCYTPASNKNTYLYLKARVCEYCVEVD

Trop-2 [1] = target: T3, Trop-2 (human, UniProt P09758 27-323); test: cell-based or functional assay
T3 sequence (looked up): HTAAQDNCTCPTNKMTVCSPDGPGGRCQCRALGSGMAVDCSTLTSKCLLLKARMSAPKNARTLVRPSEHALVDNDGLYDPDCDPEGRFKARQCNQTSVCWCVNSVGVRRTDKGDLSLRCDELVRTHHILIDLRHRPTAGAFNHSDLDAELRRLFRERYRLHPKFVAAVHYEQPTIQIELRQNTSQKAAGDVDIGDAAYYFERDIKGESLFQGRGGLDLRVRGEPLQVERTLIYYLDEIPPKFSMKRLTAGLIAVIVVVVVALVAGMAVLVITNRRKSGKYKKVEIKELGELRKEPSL

Trop-2 [2] = target: T3, Trop-2; test: cell-based or functional assay; remark: listed apart in the source
Trop-2 [3] = target: T3, Trop-2; test: assay not described; specificity EGP-1 per Table 11
Trop-2 [4] = target: T3, Trop-2; test: as above; remark: listed apart in the source

binding result (mouse Trop-2): no binding
binding result (mouse CD3): no binding
EC50, T-cell lysis of NCI-N87 cells, very weak donor T cells (Trop-2 [2]): 39 pM
EC50, T-cell lysis of NCI-N87 cells, very weak donor T cells, with peginterferonalfa-2a (Trop-2 [2]): 1.4 pM
IC50, T-cell lysis of NCI-N87 cells, donor of very active T cells (Trop-2 [2]): 0.37 pM
IC50, T-cell lysis of NCI-N87 cells, with 0.1 nM 20*-2b (Trop-2 [2]): 0.05 pM
IC50, T-cell lysis of NCI-N87 cells, with 0.1 nM peginterferonalfa-2a (Trop-2 [2]): 0.14 pM
IC50, T-cell mediated lysis of Capan-1 cells (Trop-2 [2]): 29 pM
IC50, T-cell mediated lysis of NCI-N87 cells (Trop-2 [2]): 0.85 pM
B1: (E1)-3s (bispecific antibody)
scFv: not shown
heavy (part 1 of 2): QVQLQQSGSELKKPGASVKVSCKASGYTFTNYGMNWVKQAPGQGLKWMGWINTYTGEPTYTDDFKGRFAFSLDTSVSTAYLQISSLKADDTAVYFCARGGFGSSYWYFDVWGQGSLVTVSS
heavy (part 2 of 2): not shown
light: DIQLTQSPSSLSASVGDRVSITCKASQDVSIAVAWYQQKPGKAPKLLIYSASYRYTGVPDRFSGSGSGTDFTLTISSLQPEDFAVYYCQQHYITPLTFGAGTKVEIK
notes: also called TROP2-targeting bsAb; anti-human Trop-2 x anti-human CD3 bispecific antibody; not shown: human CH1, hinge residues and Gly/Ser linker; human kappa constant domain
IC50, T cell redirected killing of BxPC3, Donor 1 (Trop-2 [1]): 1.06 pM
IC50, T cell redirected killing of BxPC3, Donor 2 (Trop-2 [1]): 0.56 pM
IC50, T cell redirected killing of BxPC3, Donor 3 (Trop-2 [1]): 0.32 pM
IC50, T cell redirected killing of Capan-1, Donor 1 (Trop-2 [1]): 35.6 pM
IC50, T cell redirected killing of Capan-1, Donor 2 (Trop-2 [1]): 248 pM
IC50, T cell redirected killing of Capan-1, Donor 4 (Trop-2 [1]): 8.51 pM
IC50, T cell redirected killing of NCI-N87, Donor 1 (Trop-2 [1]): 6.76 pM
IC50, T cell redirected killing of NCI-N87, Donor 2 (Trop-2 [1]): 34 pM
IC50, T-cell killing of BxPC3 cells (Trop-2 [2]): 0.4 pM

binding result (Trop-2 [3]): binds
B2: C-AD2-IgG-hRS7 (antibody)
heavy (part 1 of 2): B1 heavy (part 1 of 2)
heavy (part 2 of 2): CGQIEYLAKQIVDNAIQQAGC
light: B1 light
notes: not shown: IgG heavy chain constant region and linker; kappa constant domain

binding result (Trop-2 [4]): binds
B3: C-DDD2-Fab-hRS7 (Fab)
heavy (part 1 of 2): B1 heavy (part 1 of 2)
heavy (part 2 of 2): not shown
light: B1 light
notes: also called CH1-DDD2-Fab-hRS7; not shown: CH1, hinge residues and linker; kappa constant domain
